Assay results: patent WO2012008397A1 (dated 2012)
Changes are numbered by the printed parent chain.

B1: 348-H4-357-L4 (antibody, human IgG1, kappa, V domains shown)
VH: QVQLVQSGAEVKKPGASVKVSCKASGYTFTHYSMHWVRQAPGQGLEWMGWINTYTGEPTYADDFKGRFVFSLDTSVSTAYLQLSSLKAEDTAVYYCATYYRYERDFDYWGQGTLVTVSS
VL: DIVMTQSPLSLPVTPGEPASISCRSSQSIVHSSGITYLEWYLQKPGQSPQLLIYKVSNRFSGVPDRFSGSGSGTDFTLKISRVEAEDVGVYYCFQGSHVPYTFGQGTKVEIKR
notes: human IgG1 / kappa; also called antibody of humanized heavy chain of SH348-1 and humanized light chain of SH357-1; swapped antibody
B2: 348-H5-357-L4 (antibody, human IgG1, kappa, V domains shown)
VH: B1 VH with R38K, E46K, V69A, D73E, Y95F
VL: B1 VL
notes: human IgG1 / kappa
B3: 348-H5-357-L5 (antibody, human IgG1, kappa, V domains shown)
VH: B1 VH with R38K, E46K, V69A, D73E, Y95F
VL: B1 VL with I2V, V3L, Q50K
notes: human IgG1 / kappa
B4: 348-H4-357-L5 (antibody, human IgG1, kappa, V domains shown)
VH: B1 VH
VL: B1 VL with I2V, V3L, Q50K
notes: human IgG1 / kappa

Molecular target: T1, His-Fibronectin type III domain (426-540) (human, UniProt P29317 426-540)
T1 construct: also called His-Fibrinctin type III domain (426-540); Fibronectin type III domain of EPHA2; not shown: histidine tag added to the amino terminus
T1 sequence (P29317 426-540): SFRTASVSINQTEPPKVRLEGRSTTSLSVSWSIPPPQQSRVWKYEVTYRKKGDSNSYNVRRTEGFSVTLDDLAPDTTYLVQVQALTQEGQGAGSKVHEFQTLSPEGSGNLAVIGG
Assay: SPR (Biacore T100), antibody captured on anti-human IgG(Fc), antigen as analyte, 1:1 model

Binder | Kd [nM]
B1 | 0.37
B2 | 0.32
B3 | 0.3
B4 | 0.37
